Experimental data reported in patent US20220249561A1 (SHINSHU UNIVERSITY, published 2022).

Legend:
ALK 001P = molecular target: T1, ALK 001P; experiment: SPR, Biacore 8K; receptor-Fc captured on Protein A chip, ligand as analyte
T1 construct: ALK (1-19) is described only as a region comprising a secretory signal, and no cleavage site is stated; Expressed in Expi293 cells and captured on a Protein A chip through its Fc
Procedure: (§1) Whether or not ALK 001P and LTK 001P obtained in Example 5 had bound to Ligand 001P and Ligand 002P was examined using Biacore 8K instrument (GE Healthcare Japan) by the surface plasmon resonance (SPR) technique.
(§2) ALK 001P and LTK 001P were dissociated (i.e., regenerated) from Protein A coating the sensor chip surface (i.e., regeneration) by injecting 10 mM Glycine-HCl (pH 1.6) at a flow rate of 30 μl/min for 30 seconds. The bond dissociation curve modified by subtracting the baseline value was prepared using Biacore8K Evaluation Software (GE Healthcare Japan).

LTK 001P = molecular target: T2, LTK 001P; experiment: as above
T2 construct: Expressed in Expi293 cells and captured on a Protein A chip through its Fc
T2 sequence (chain, as listed by the source limits assumed): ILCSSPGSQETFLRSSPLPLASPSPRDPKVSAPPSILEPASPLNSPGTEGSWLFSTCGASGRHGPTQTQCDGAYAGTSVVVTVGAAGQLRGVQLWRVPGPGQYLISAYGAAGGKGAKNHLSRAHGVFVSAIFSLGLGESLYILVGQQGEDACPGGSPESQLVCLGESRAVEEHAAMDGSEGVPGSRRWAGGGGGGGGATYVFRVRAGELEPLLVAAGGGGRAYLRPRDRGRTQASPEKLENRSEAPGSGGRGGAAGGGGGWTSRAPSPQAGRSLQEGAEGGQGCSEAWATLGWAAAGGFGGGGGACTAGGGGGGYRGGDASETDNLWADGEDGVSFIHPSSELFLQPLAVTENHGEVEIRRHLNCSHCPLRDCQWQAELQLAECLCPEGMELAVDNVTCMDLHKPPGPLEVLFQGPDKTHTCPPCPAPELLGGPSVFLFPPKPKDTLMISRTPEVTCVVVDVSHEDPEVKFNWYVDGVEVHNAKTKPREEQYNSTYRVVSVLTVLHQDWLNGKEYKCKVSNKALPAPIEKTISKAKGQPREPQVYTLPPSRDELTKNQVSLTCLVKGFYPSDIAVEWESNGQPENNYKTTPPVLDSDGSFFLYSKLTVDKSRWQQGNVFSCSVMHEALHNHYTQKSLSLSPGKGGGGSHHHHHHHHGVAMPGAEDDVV
Procedure: as §1, §2

T1 sequence (chain, as listed by the source limits assumed): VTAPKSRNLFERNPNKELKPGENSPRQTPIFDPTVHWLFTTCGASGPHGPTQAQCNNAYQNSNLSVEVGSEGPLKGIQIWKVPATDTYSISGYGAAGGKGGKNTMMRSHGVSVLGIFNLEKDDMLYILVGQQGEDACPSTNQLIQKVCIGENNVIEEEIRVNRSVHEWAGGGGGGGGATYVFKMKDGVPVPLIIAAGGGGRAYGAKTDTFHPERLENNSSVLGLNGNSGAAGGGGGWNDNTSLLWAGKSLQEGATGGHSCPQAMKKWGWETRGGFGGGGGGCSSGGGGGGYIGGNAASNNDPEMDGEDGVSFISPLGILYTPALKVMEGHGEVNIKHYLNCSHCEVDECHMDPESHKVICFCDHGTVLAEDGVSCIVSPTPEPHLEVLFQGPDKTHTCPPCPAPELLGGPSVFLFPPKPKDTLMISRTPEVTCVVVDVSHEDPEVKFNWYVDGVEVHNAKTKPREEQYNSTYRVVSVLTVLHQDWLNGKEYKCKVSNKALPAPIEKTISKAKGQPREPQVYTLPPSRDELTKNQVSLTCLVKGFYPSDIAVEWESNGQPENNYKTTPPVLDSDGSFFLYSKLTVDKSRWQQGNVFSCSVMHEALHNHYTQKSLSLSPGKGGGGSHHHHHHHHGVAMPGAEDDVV

B1: Ligand 001P (ligand)
chain: DGHHHHHHGSLQDSEVNQEAKPEVKPEVKPETHINLKVSDGSSEIFFKIKKTTPLRRLMEAFAKRQGKEMDSLTFLYDGIEIQADQTPEDLDMEDNDIIEAHREQIGGLEVLFQGPAAGAGRTPSGSRSAEIFPRDSNLKDKFIKHFTGPVTFSPECSKHFHRLYYNTRECSTPAYYKRCARLLTRLAVSPLCSQT
binding result (ALK 001P): binds
binding result (LTK 001P): binds
